Target: endogenous Ldb1 complexes at the LCR (in G1E cells) (UniProt P70662)
Assay: cell-based or functional assay

Sequence of UniProt P70662 (P70662 2-411 limits assumed, one chain of several): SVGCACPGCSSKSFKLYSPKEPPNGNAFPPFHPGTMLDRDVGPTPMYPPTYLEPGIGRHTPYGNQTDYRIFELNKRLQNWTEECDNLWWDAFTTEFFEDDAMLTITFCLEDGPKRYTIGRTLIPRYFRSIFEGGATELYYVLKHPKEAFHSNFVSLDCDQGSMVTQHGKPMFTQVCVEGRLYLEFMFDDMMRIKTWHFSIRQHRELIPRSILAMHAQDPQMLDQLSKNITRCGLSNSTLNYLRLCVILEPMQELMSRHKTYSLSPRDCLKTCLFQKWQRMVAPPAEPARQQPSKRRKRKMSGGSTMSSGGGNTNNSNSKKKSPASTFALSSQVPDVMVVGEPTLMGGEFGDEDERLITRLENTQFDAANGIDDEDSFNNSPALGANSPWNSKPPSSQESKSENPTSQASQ

β-globin transcription in G1E cells (RT-qPCR): > 1000 fold
Substance: P-Ldb1 (P-ZF, zinc finger protein targeting the β-major promoter, fused to full length Ldb1)
